Publication PMC8099778

Molecular target: myosin VI (mouse (endogenous in mouse brain)) (UniProt Q64331)
Assay: co-IP

Sequence of UniProt Q64331 (Q64331 whole entry): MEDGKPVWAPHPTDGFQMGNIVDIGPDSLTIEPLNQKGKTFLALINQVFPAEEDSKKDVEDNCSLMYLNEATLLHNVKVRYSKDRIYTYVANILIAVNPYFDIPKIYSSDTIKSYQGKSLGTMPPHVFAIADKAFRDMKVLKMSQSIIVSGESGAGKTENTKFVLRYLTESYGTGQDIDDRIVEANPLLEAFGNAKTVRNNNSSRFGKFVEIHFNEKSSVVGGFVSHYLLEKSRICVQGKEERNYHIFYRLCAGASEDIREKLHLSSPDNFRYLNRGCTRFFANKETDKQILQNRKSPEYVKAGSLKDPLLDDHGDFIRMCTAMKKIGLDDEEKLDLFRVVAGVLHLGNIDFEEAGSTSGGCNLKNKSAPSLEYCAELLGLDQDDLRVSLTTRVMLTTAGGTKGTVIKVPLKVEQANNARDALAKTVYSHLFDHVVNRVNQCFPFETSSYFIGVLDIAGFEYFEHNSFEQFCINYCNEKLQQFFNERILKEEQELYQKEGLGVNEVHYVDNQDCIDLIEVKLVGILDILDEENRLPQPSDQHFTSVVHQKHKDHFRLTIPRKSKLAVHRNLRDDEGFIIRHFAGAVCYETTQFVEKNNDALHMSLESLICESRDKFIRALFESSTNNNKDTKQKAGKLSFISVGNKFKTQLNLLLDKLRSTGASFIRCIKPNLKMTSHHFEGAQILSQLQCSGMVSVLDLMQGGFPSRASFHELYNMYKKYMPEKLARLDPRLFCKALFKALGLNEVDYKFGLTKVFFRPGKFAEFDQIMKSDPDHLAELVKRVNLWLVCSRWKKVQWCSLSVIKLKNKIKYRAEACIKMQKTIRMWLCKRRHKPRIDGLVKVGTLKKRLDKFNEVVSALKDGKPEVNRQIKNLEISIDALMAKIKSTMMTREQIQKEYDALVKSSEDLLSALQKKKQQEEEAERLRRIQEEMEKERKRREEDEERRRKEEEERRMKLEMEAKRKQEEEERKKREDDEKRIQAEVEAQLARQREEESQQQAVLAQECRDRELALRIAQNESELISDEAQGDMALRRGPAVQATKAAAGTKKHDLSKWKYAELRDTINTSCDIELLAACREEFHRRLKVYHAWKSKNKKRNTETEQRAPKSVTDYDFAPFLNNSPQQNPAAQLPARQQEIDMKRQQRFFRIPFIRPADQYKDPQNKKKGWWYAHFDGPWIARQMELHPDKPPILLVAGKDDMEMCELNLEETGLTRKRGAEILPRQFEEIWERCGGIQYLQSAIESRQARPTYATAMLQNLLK

**Q.** How did the DIC coprecipitation normalized to myosin VI immunoprecipitation (wt lysate) turn out when “dynein intermediate chain (from UniProt O88485 1-628) (natural protein)” was run?
**A.** The DIC coprecipitation normalized to myosin VI immunoprecipitation (wt lysate) was 1.44.
